# In the supplement of paper PMC9170038:
# Tested on: K4 kissing-loop RNA reporter
# Experiment: apparent KD of K4 kissing-loop reporter; higher = weaker reporter binding
# Conditions: Eterna round: R107; input ligand: none
# Procedure: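 RNA-MaP round R107: designed RNA switches with theophylline, tryptophan, arginine or FMN aptamers are transcribed on-chip within common flanks. They are titrated with a labelled K4 kissing-loop RNA reporter in RNA-MaP buffer (100 mM Tris pH 7.5, 80 mM KCl, 4 mM MgCl2), without ligand or with the indicated ligand. Median apparent KD per design.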
# 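Also: bound reporter read as fluorescence of individual clusters on recovered sequencing chips by microscopy, with normalized cluster intensities fitted with a binding model.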
row,Sequence,apparent KD of K4 kissing-loop reporter [nM]
1,UGAUACCAGACGGCCGCCACUACACCAGUCAAAGACUGGAUGUGAAAUUCGACCAGUGAUGUUGGUAGGACCGGGUCUGGUAUCU [TrypBX 8 #SwitchBubble #StaticStem],379
2,AUUUAGACGAGUGAUGUUCGUGAUUUUUCAGAGGAUAUGCGUAAUAGCAGAAGGCUGUAUUUAUAUAUAUUUUGAUUUUUUUAAA [JR_ExcFMNA_Sub009],59.5
3,CUGUCAUGGGAUGGGCCAGUGAUGUUGGGCCGAGGACCGGUACGGCCGCCACUCGUAGCACAGUGCGCGCUAGCAUUGUACGUCA [theeternabot_exclusion_KL_Trp_A_35],977
4,AAUAAAAGAUGUUUAGGAAAGAAAAUGGAAGGAGCGUGCGAAAGCACAGGUAGGUCGCCAGUGAUGUUGGAACCUGAGCAUCAAA [#SwitchBubble 15 #K4Late],699
5,GUCGGCCGCGCGCAAGCGCGGCCGGCCGAUACCAGCGCGCCGGCGCGCCCUUGGCAGCGGCGCCGAGUGAUGUUCGGCCUGACGU [#2 Same State - Theophylline A Attempt #7 (HarryS)],704
6,AACACUCAGAGAGUGAUGUUCUCUAAUAAACGAGGACCGGUACGGCCGCCACUCGAAUAAGAGUGAGUCCUACGAAAAGUAGGAC [Omei inspired 5 #OpenEnded],1050
7,UCCUUUGUUGCCAGUGAUGUUGGACAGGAAGGAGCGGGCAUAAGCCCAGGUAGGUCGCCUGUCAACUUUCUUAUAGCCCGAAGGU [KL-XArg-A19],368
8,UGUAUGUGAUUUGAUACCAGACCAGCUGGUGUUUCAAGAGUGAUGUUCUUGUAGGUUUGGGUCCCUUGGCAGCAAAUCGCAUACU [KL-SSTheoB15],152
9,CUGACGAUGACACGGUGGCCGCUGGUCGUGCGAGGACCGGUACGGCCGCCACUCGCAUGAGUGAUGUUCAUGUGUCGUCGUCGUC [#08 K4 Tryptophan A Exclusion],111
10,UACUUAUAUUUCAACUUAAAUUAUUCAGAAGGAGCGUGAUCAUUCACAGGUAGGUCGCUGAACUAGUGAUGUUAGUUUUAAUUUU [JR_Nu_ExcArginiA_Sub022],76.5
11,UGGACCUGACUCGAUAAGAGUCAAGGAGAUACCAGCCACGAAAGUGGCCCUUGGCAGCUCUGCCAGUGAUGUUGGUCAAGGUCCU [#SwitchBubble 7 #StaticStem],912
12,CAUACGCAUGGAGGAUAUGAGAUUUUUCAUAUUAUUUUUUAUUCUCAGUGAUGUUGGGAUUUAUAAUCAGAAGGCCAUGUGUAUG [Ex FMN B 11],84.9
13,AGUGUUGUAUGGCGGUUUGUCACUUAGGAUCAGGAUAUAUAAACAAAUAGAAGGGAUGGCGGAGUGAUGUUCCGCCGGCCGCCAU [FMN A Exl V7],121
14,GGAUAGGACAGAGGAUAUCUCUGAGGCAAGAAAACUUGUCUCUAAAGAGAUGACUCAGUGAUGUUGGGAGAAGGCUGUCCUAUCG [FmnBX 10 - #SwitchBubble #StaticStem],141
15,GCUGUCCAGUUCGAUACCAGAGUUAUCGCACUGUAGUGAUAAAGUGAUGUUUUAUCAGUCCUCCCUUGGCAGCGAUGCCCGGCUG [theeternabot_exclusion_KL_Theo_B_25],166
16,UUGUAUAGUGGAAGGAGCGCGUGGGCGCAGUGAUGUUGCGCCCGACAUCACUUCAACUUAACGCAGGUAGGUCGCCAUUGUAAUG [Arginine B (Excl) V5],113
17,CCGGCCCGGCCGGAUACCAGUGCGCCGCUGGGAACCGCGGGCCCAGAGUGAUGUUCGGGACACCCUUGGCAGCCGCCUGGGUCGC [#2 Same State - Theophylline B Attempt #24 (HarryS)],247
18,AGCGUCUGAAGAGGAUAUGACCAGUGAUGUUGGUUACUACCUCAAAUUAGUGUCUCGUCAAAAUCGUCAGAAGGCUUCGACGAGC [#09 K4 FMN B Exclusion],95.7
19,CGGAGUGAUGUUCCUUUUAUUAAUUAUUAACGAGGACCGGUACGGCCGCCACUCGAUUUAGCUUUUAUUUAAUGCUUGGAUGUUU [JR_SSTryptoA_Sub003],157
20,CGCGCCCAGCCGGAUACCAGUGACCCGCUGGGAACCGCGGGCCCAGAGUGAUGUUCGGGACACCCUUGGCAGCCGCCUGGGCGAC [#2 Same State - Theophylline B Attempt #8 (HarryS)],1130
21,CAUUAAACUCAAACUAUUGGGUUUACGUUCCGAGGACCGGUACGGCCGCCACUCGGUCGAUGCUAUACCAUACGAGUGAUGUUCG [theeternabot_sameState_KL_Trp_A_1],502

# Same assay, conditions: Eterna round: R107; input ligand: theophylline 20 uM
row,Sequence,apparent KD of K4 kissing-loop reporter [nM]
1,UGGCGGACGAUCCGGAGUGAUGUUCCGGAUACCAGCAGAAGAGCCUGCCCUUGGCAGCCGUACGACGCUGGGAGAGUCCGGCGUC [Soteina],66.7
2,UGACAUUGCUCAGAUACCAGACAUGAGCAUCAGCCAUGUACCAAGAAAGUACAAUAAAAUGUCCCUUGGCAGCUGAGCAAUGUCU [TheoBX 8],121
3,AAUUUUAAUCAUAAAUAAUAAAUAAAUGAUACCAGUAUUUUUUUUUACCCUUGGCAGCGUAUAUAAGGGCAGUGAUGUUGUCAGA [whbob_SS_Theo_A_w60],222
4,UGAUACCAGACUGAUACCAGCCAGUGAUGUUGGCUAAGCCAAAUAGGUGUCAAAGACACCGGCCCUUGGCAGCAGUCUGGUAUCU [TheoBX 2 #SwitchBubble #StaticStem],136
5,GGAGUUACCUGGGAUACCAGUCGGAGACCCAGAGCUCGGAGUGAUGUUCUGGGAUGUUUCGGCCCUUGGCAGCUCUGGGUCUCCC [#2 Exclusion - Theophylline B Attempt #8 (HarryS)],936
6,GAAUGAUAGUAAGGAUAUAGAUAAUCCUUAUAUAUAUCGAGUGAUGUUCGAUGUGGCAAGAUACAUCUAGAAGGUACUGUAAGGU [Same State FMN B GF 16],361
7,CUCCUUGGCUAAGGAUAUCGUAGUGAUGUUAUGGUCUUUGCUAAGACUUCUGAUAUUGAAUUCCGACGAGAAGGUAGAAGGACGG [theeternabot_exclusion_KL_FMN_B_18],745
8,UCUGUUGUAUAUGAUACCAGCAGUGAGAGAUGAGAAGUAUAGUGAUGUUAUAUGAGAGAAUGCCCUUGGCAGCGUGUGCGUGUGG [SSTheophylB.aC],100
9,CGCCGUAAGGCGAGCGCUCCCACUCCGGAAGGAGCGCCCGAAAGGGCAGGUAGGUCGCCGGAGUGAUGUUCCGGUGGAGGGCUCG [#2 Exclusion - Arginine A Attempt #28 (Inspired by Omei)],267
10,UCACUCAUGUGAAGGAGCGUGAGAAGACAUGAGUGAUGUUCAUGUCUAGACCAGCGUCUCUCACAGGUAGGUCGCACAUGAAAGG [Arg B SS t10],100
11,AAAAUUGCGGUCGAUAGAACUUUUUGCUUACGAGGACCGGUACGGCCGCCACUCGAGUCAAGUGAUGUUUGAUUUUCUAUUAUUA [JR_ExcTryptoA_Sub014],176
12,UUUAACGAGUGAUGUUCGAAAAGUAAUGGUGAGGAUAUCGAUUUUUCGAGAAGGCACCUCGAAGUGAUACGAAAGUAUCGCUUCG [FMN A 4],257
13,CCUUUCUGUUACGAUACCAGUCUAAUAUAUUUGAUCAAUACCCUCGCCGAGUGAUGUUCGGACCCUUGGCAGCGUCUGGGACAGG [aazwmullin],468
14,GGAGGAGAAUAUGAUACCAGCAGAGAGAGAGAGGAAGUAUAGUGAUGUUAUAUGUGAGAAUGCCCUUGGCAGCAUAAGAAGAAGG [whbob_SS_Theo_B_sa87],170
15,CAUAGACAAGUGAUGUUUGUCAUAACCGAAGGAGCGUCUUUAAAGACAGGUAGGUCGCGGAUUAAUUAAGUUAUUAUUCUUUUUA [JR_SSArginiA_Sub018],573
16,UAGUCAUACAGAGGAUAUCGUAUGAGUGAUGUUCAUACGACAUAAUCAAAUUGUAUUGAUGUUCGACGAGAAGGCUGUAUGACUA [FMN B Ex t1],117

row,Sequence,apparent KD of K4 kissing-loop reporter [nM]
1,GUGUAACGAGGAAACCUCGUUACACCCUCACGAGGACCGGUACGGCCGCCACUCGAGAGCUCGUGAGGAGUGAUGUUCCUCGUGA,435
2,GGGAGUAGUGCGGCCGCCACUGAGAAAGAAGAAGAAUAUAGUGAUGUUAUAUAGGAAAGGAAGAAUAGGACCGGGCAUUAGAUUU [SSTRyptB.J],238
3,CCGGCCCAGCCGGAUACCAGUGCGCCGCAGGGAACGGCGGGCCCAGAGUGAUGUUCGGGACACCCUUGGCAGCCGCCUGGGUCCU [#2 Same State - Theophylline B Attempt #29 (HarryS)],767
4,GCUAUGGUUGGAAGGAGCGUUGAAUUGUUGGUAAGAGUGAUGUUCGAUAGUGGAUAGUUGUAGCAGGUAGGUCGCCAACUAUAGC [KL-Arg B27],517
5,ACAGUCGGCUGUGAUACCAGUCGUAUUACAACAUGUUGCAGUGAUGUUGCGAGAUAGGAUGACCCUUGGCAGCACUCAGUACGAU [Same State Theophylline B GF9],179
6,UGAUACCAGACGGCCGCCACUACACCAGUCAAAGACUGGAUGUGAAAUUCGACCAGUGAUGUUGGUAGGACCGGGUCUGGUAUCU [TrypBX 8 #SwitchBubble #StaticStem],347
7,AUUUAGACGAGUGAUGUUCGUGAUUUUUCAGAGGAUAUGCGUAAUAGCAGAAGGCUGUAUUUAUAUAUAUUUUGAUUUUUUUAAA [JR_ExcFMNA_Sub009],82.8
8,CUGUCAUGGGAUGGGCCAGUGAUGUUGGGCCGAGGACCGGUACGGCCGCCACUCGUAGCACAGUGCGCGCUAGCAUUGUACGUCA [theeternabot_exclusion_KL_Trp_A_35],808
9,AAUAAAAGAUGUUUAGGAAAGAAAAUGGAAGGAGCGUGCGAAAGCACAGGUAGGUCGCCAGUGAUGUUGGAACCUGAGCAUCAAA [#SwitchBubble 15 #K4Late],677
10,GUCGGCCGCGCGCAAGCGCGGCCGGCCGAUACCAGCGCGCCGGCGCGCCCUUGGCAGCGGCGCCGAGUGAUGUUCGGCCUGACGU [#2 Same State - Theophylline A Attempt #7 (HarryS)],601
11,AACACUCAGAGAGUGAUGUUCUCUAAUAAACGAGGACCGGUACGGCCGCCACUCGAAUAAGAGUGAGUCCUACGAAAAGUAGGAC [Omei inspired 5 #OpenEnded],1120
12,UCCUUUGUUGCCAGUGAUGUUGGACAGGAAGGAGCGGGCAUAAGCCCAGGUAGGUCGCCUGUCAACUUUCUUAUAGCCCGAAGGU [KL-XArg-A19],424
13,UGUAUGUGAUUUGAUACCAGACCAGCUGGUGUUUCAAGAGUGAUGUUCUUGUAGGUUUGGGUCCCUUGGCAGCAAAUCGCAUACU [KL-SSTheoB15],122
14,CUGACGAUGACACGGUGGCCGCUGGUCGUGCGAGGACCGGUACGGCCGCCACUCGCAUGAGUGAUGUUCAUGUGUCGUCGUCGUC [#08 K4 Tryptophan A Exclusion],112
15,UACUUAUAUUUCAACUUAAAUUAUUCAGAAGGAGCGUGAUCAUUCACAGGUAGGUCGCUGAACUAGUGAUGUUAGUUUUAAUUUU [JR_Nu_ExcArginiA_Sub022],116
